Assay results: article PMC2628294

Key:
[1] = molecular target: PNGase F deglycosylated IgG1-Fc (human); assay: SDS-PAGE under non-reducing conditions
[2] = molecular target: yeast-expressed recombinant human IgG1-Fc (1) (human); assay: SDS-PAGE under non-reducing conditions
[3] = molecular target: yeast-expressed recombinant human IgG1-Fc (1) (human); assay: SEC
[4] = molecular target: soluble human FcγIIIa receptor (human) (UniProt P08637); assay: SPR
[5] = molecular target: GlcNAc-containing IgG1-Fc (2) (human); assay: SEC

Sequence of UniProt P08637 (P08637 17-208): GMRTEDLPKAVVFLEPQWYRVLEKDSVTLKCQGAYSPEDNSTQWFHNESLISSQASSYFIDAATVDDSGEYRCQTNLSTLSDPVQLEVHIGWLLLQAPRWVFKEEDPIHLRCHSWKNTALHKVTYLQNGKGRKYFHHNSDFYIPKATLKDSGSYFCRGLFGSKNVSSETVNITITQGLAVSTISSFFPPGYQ

## PNGase F deglycosylated IgG1-Fc (domain or fragment)
[1]
  stoichiometry N: 2

## yeast-expressed recombinant human IgG1-Fc (1) (domain or fragment)
[2]
  stoichiometry N: 2
[3]
  stoichiometry N: 2

## IgG1-Fc glycoform (4), Man3GlcNAc2-IgG1-Fc (domain or fragment)
[4]
  fold more active in binding than the CHO-expressed IgG1-Fc: 2 fold

## IgG1-Fc glycoform (6), Gal2Man3GlcNAc2-IgG1-Fc (domain or fragment)
[4]
  fold more active in binding than the CHO-expressed IgG1-Fc: 1.4 fold

## GlcNAc-containing IgG1-Fc (2) (domain or fragment)
[4]
  fold less active in binding than the Fc glycoform (4): > 17 fold
[5]
  stoichiometry N: 2
